These results are taken from patent US20210032351A1 (XDCEXPLORER SHANGHAI, published 2021).

Ends that are not written are not given here. * marks the point of attachment. Biotin = O=C1N[C@H]2[C@H](CS[C@H]2CCCCC(=O)*)N1

Assay [1] addresses wild-type EGFR protein on the surfaces of A431 tumor cells and normal human primary hepatocytes (human) (UniProt P00533). Description: FACS, A431 tumor cells. For orientation: In flow cytometry, cells or beads pass a laser one at a time.
For assay [2] the target is unchanged. The assay can be described thus: FACS, normal human primary hepatocytes.
The target of assay [3] is human EGFRvIII protein, full length, on transfected cells (human) (UniProt P00533). Description: FACS, 293F-hEGFRvIII 1F3 cells.
Assay [4] has the same target. Description: FACS, 293F-hEGFRvIII 1C10 cells.
Assay [5] shares this target. The assay can be described thus: FACS, 293F-hEGFRvIII 1D11 cells.
The target is the same in assay [6]. The assay can be described thus: FACS, U87MG-hEGFRvIII 1B3 cells.
Assay [7] has the same target. The assay can be described thus: FACS, U87MG-hEGFRvIII 1D1 cells.
Assay [8] shares this target. The assay can be described thus: FACS, U87MG-hEGFRvIII 1F9 cells.
Assay [9] has the same target. The assay can be described thus: FACS, U87MG-hEGFRvIII 2C3 cells.
Assay [10] shares this target. The assay can be described thus: FACS, U87MG-hEGFRvIII 2C6 cells.
Assay [11] shares this target. The assay can be described thus: FACS, U87MG-hEGFRvIII 2G2 cells.
The target is the same in assay [12]. The assay can be described thus: FACS, CHO-K1-hEGFRvIII 1D9 cells.
Assay [13] shares this target. The assay can be described thus: FACS, CHO-K1-hEGFRvIII 1E3 cells.
For assay [14] the target is unchanged. Description: FACS, CHO-K1-hEGFRvIII 2B3 cells.
For assay [15] the target is unchanged. Description: FACS, CHO-K1-hEGFRvIII 1E10 cells.
Assay [16] has the same target. Description: FACS, CHO-K1-hEGFRvIII 1G10 cells.
Assay [17] shares this target. The assay can be described thus: FACS, CHO-K1-hEGFRvIII 2D11 cells.
Assay [18] concerns the target T1, human EGFRvIII-hFc protein (human, UniProt P00533 25-645).
T1 construct: extracellular domain; made in HEK293 cells, purified on protein A; also called immunogen A; hFc-tagged EGFRvIII protein; not shown: human IgG Fc fragment (hFc) of the pCpC vector
The assay can be described thus: ELISA, coated EGFRvIII-hFc, antibody 1 nM. The method in brief:
(§1)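 Direct ELISA against immobilized EGFRvIII-hFc (1.0 μg/mL coating). Antibody incubated 2 h at 37° C, detected with HRP secondary and TMB; absorbance at 450 nm.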
For orientation: An ELISA detects its analyte on a solid surface through an enzyme-linked reagent.

For assay [19], the target named is T1, human EGFRvIII-hFc protein. Description: ELISA, coated EGFRvIII-hFc, antibody 10 nM. The method in brief: as §1
For assay [20], the target named is T1, human EGFRvIII-hFc protein. Description: ELISA, coated EGFRvIII-hFc, antibody 0.1 nM. An outline of the steps:
as §1

Assay [21] deals with T1, human EGFRvIII-hFc protein. Description: ELISA, coated EGFRvIII-hFc, antibody 100 nM. The method in brief:
as §1

Assay [22] concerns the target T1, human EGFRvIII-hFc protein. Description: ELISA, coated EGFRvIII-hFc, antibody 0.01 nM. The method in brief:
as §1

The target of assay [23] is T1, human EGFRvIII-hFc protein. The assay can be described thus: ELISA, coated EGFRvIII-hFc, antibody 0.001 nM. An outline of the steps: as §1
For assay [24], the target named is T1, human EGFRvIII-hFc protein. The assay can be described thus: ELISA, coated EGFRvIII-hFc, antibody 0.0001 nM. An outline of the steps: as §1
In assay [25] the target is T1, human EGFRvIII-hFc protein. Description: ELISA, plate coated with human EGFRvIII-hFc, HRP secondary antibody, absorbance at 450 nm. Here is the method: The purified immunogen A (EGFRvIII-hFc) obtained in example 1 (for the preparation method, see step (I) in example 1) is diluted with PBS to a final concentration of 1.0 μg/mL, and then added to a 96-well ELISA plate at 100 μl/well. The plate is sealed with a plastic film and incubated at 4° C. overnight. The next day, the plate is washed twice with a plate washing solution [PBS+0.01% (v/v) Tween20], and added with a blocking solution [PBS+0.01% (v/v) Tween20+1% (w/w) BSA] for blocking 2 hours at room temperature. The blocking solution is discarded, and the purified EGFRvIII antibody obtained in example 2 is added at 100 μl/well. The plate is incubated for 2 hours at 37° C., and then washed 3 times with the plate washing solution [PBS+0.01% (v/v) Tween20]. The plate is added with an HRP (horseradish peroxidase) labeled secondary antibody (purchased from Sigma), incubated at 37° C. for 2 hours, and then washed 3 times with the plate washing solution [PBS+0.01% (v/v) Tween20]. The plate is added with 100 μl of TMB substrate/well, incubated for 30 minutes at room temperature, and then added with 100 μl of stopping solution (1.0N HCl)/well. A450 nm value is read using an ELISA plate reader (SpectraMax 384plus, purchased from Molecular Device), and the results are shown in FIG. 6 and table 10.

Assay [26] has as its target T2, human EGFRvIII protein, full length, on transfected cells (human, UniProt P00533 25-1210).
T2 construct: whole, on cells; stably transfected CHO-K1, U87MG and HEK293(F) cells; also called hEGFRvIII; mutant EGFRvIII protein
Description: FACS on CHOK-EGFRvIII cells.

Another assay deals with T3, pep02.
T3 peptide: EEKKGNYVVTDHGSCVK(Biotin)
The assay can be described thus: peptide dot matrix ELISA.

Another assay concerns the target T4, pep08 (cysteine pairing not given here).
T4 peptide: YVVTDHGSCVRACGADK(Biotin)
The assay can be described thus: peptide dot matrix ELISA.

The next assay deals with T5, pep11 (cysteine pairing not given here).
T5 peptide: TDHGSCVRACGADSYEK(Biotin)
Description: peptide dot matrix ELISA.

A further assay deals with T6, pep16 (cysteine pairing not given here).
T6 peptide: CVRACGADSYEMEEDGK(Biotin)
Description: peptide dot matrix ELISA.

In a further assay the target is T7, pep17.
T7 peptide: VRACGADSYEMEEDGVK(Biotin)
The assay can be described thus: peptide dot matrix ELISA.

The next assay deals with T8, pep18.
T8 peptide: RACGADSYEMEEDGVRK(Biotin)
The assay can be described thus: peptide dot matrix ELISA.

Another assay concerns the target T9, pep23 (cysteine pairing not given here).
T9 peptide: DSYEMEEDGVRKCKKCK(Biotin)
Description: peptide dot matrix ELISA.

In another assay the target is T10, pep24 (cysteine pairing not given here).
T10 peptide: SYEMEEDGVRKCKKCEK(Biotin)
The assay can be described thus: peptide dot matrix ELISA.

For the next assay, the target named is T11, pep28 (cysteine pairing not given here).
T11 peptide: EEDGVRKCKKCEGPCRK(Biotin)
The assay can be described thus: peptide dot matrix ELISA.

A further assay deals with T12, pep31 (cysteine pairing not given here).
T12 peptide: GVRKCKKCEGPCRKVCK(Biotin)
Description: peptide dot matrix ELISA.

A further assay deals with T13, pep32 (cysteine pairing not given here).
T13 peptide: VRKCKKCEGPCRKVCNK(Biotin)
Description: peptide dot matrix ELISA.

The target of the next assay is T14, pep33 (cysteine pairing not given here).
T14 peptide: RKCKKCEGPCRKVCNGK(Biotin)
Description: peptide dot matrix ELISA.

The target of another assay is T15, pep34 (cysteine pairing not given here).
T15 peptide: KCKKCEGPCRKVCNGIK(Biotin)
Description: peptide dot matrix ELISA.

The target of a further assay is T16, pep35 (cysteine pairing not given here).
T16 peptide: CKKCEGPCRKVCNGIGK(Biotin)
The assay can be described thus: peptide dot matrix ELISA.

Turning to Negative control hIgG (antibody), the mean fluorescence intensity (MFI) in assay [1] was 388 MFI; in assay [2], 219 MFI.
“known EGFRvIII antibody (purchased from Absoluteantibody, #Ab00184-1.1)”: the cell mean fluorescence intensity is 395 in [3]; 458 in assay [4]; 388 in assay [5]; 66.9 in assay [6]; 96.4 in [7]; 68 in assay [8]. Moreover, the cell mean fluorescence intensity in [9] is 82.7; in [10] it was 178; in assay [11], 182; in assay [12] it was 457; in assay [13], 42; in assay [14], 109. Besides, the cell mean fluorescence intensity amounted to 92 in assay [15], 563 in assay [16] and 77 in [17].

B1: Murine anti-43H6 (antibody, V domains shown)
VH: INAEYAGGPGLVKPSQSLSLTCTVTDYSITSDYAWNWIRQFPGNKLEWMGYISYSGNTNYNPSLKSRISITRDTSKNQFFLQLNSVTTEDTATYYCARLGRGFAYWGQGTLVTVSA
VL: DILMTQSPSSMSVSLGDTVSITCHASQDINSNIGWLQQKPGTSFKGLIYHGRNLEDGVPSRFSGSGSGEDYSLTISSLESEDFADYYCVQYAHFPPTFGAGTKLELK
notes: murine hybridoma antibody; also called 43H6A1
Take B1: the OD450 nm in [18] is 3.86; in assay [19], 3.87; in [20] it was 1.39; in [21], 3.85; in assay [22], 0.25; in assay [23] it was 0.11. Moreover, the OD450 nm in assay [24] worked out at 0.09. The concentration giving a half-maximal response (EC50 (read off the curve)) – broadly, the concentration that produces a half-maximal response – in assay [25] is ~0.02 nM.

B2: c75G7C6-4 (antibody, human IgG1, V domains shown)
VH: EVQLQQSGPELVKPGASVKIPCKASGYTFTDYNMDWVKQSHGKSLEWIGDINPNNGDTIYNQKFKGKATLTVDKSSSTAYMELRSLTSEDTAVYYCARGDYSGYYPVYYAMDYWGQGTSVTVSS
VL: ENVLTQSPAIMSASPGEKVTMTCRASSSVSSSYLHWYQQKSGASPKLWIFSTSNLAAGVPARFSGSGSGTSYSLTVSSVEAEDAATYYCQQYSGYPLTFGAGTKLELK
notes: chimeric, human IgG1 / kappa; DG of heavy chain CDR3 mutated to SG; also called DG/SG mutant
Consider B2, for which the “fold decrease in binding ability compared to the wild-type chimeric antibody c75G7C6” value in [26] was determined as 2.5 fold.

B3: Chimeric antibody 75G7 (antibody, V domains shown)
VH: EVQLQQSGPELVKPGASVKIPCKASGYTFTDYNMDWVKQSHGKSLEWIGDINPNNGDTIYNQKFKGKATLTVDKSSSTAYMELRSLTSEDTAVYYCARGDYDGYYPVYYAMDYWGQGTSVTVSS
VL: ENVLTQSPAIMSASPGEKVTMTCRASSSVSSSYLHWYQQKSGASPKLWIFSTSNLAAGVPARFSGSGSGTSYSLTVSSVEAEDAATYYCQQYSGYPLTFGAGTKLELK
notes: also called c75G7C6
In the case of B3, the ELISA signal with pep02 came out at 0.05; with pep08, 0.05; with pep11 it was 0.08; with pep16, 0.05; in the assay with pep17 it was 0.05; with pep18, 0.05. Also, the ELISA signal is 0.05 with pep23; 0.05 in the assay with pep24; 0.06 with pep28; 0.06 in the assay with pep31; 0.06 with pep32; 0.07 with pep33. Also, the ELISA signal stood at 0.06 in the assay with pep34 and 0.07 with pep35.
